The record followed here is patent US20210317231A1 (BYONDIS B V, published 2021).

For experiment [1], the target named is T1, human 5T4 oncofoetal antigen (human, UniProt Q13641 32-420).
T1 construct: whole, on cells; also called hu 5T4; human 5T4 antigen
T1 sequence (looked up): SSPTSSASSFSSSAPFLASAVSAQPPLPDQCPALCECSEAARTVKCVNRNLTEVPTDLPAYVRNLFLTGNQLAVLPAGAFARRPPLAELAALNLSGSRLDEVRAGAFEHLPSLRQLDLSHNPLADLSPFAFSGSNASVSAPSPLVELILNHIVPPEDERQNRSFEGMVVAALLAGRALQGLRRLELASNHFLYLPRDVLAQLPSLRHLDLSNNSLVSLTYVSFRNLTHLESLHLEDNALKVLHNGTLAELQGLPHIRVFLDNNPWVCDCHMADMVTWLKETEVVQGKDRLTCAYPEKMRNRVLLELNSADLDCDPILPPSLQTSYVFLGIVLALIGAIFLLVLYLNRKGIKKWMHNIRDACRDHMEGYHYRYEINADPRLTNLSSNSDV
As to the kind of experiment: flow cytometry, MDA-MB-468 cells. The procedure:
(§1) 17 antibodies were selected and affinity to 5T4 antigen was measured using MDA-MB-468 cells, PA-1 cells and Chinese Hamster Ovary (CHO) mammalian cells expressing human or cyno 5T4 antigen (Table 2). In the current application the utilized CHO cells are referred to as CHOZN as these CHO cells expressing human or cyno 5T4 antigen were obtained using the CHOZN® Platform of Sigma-Aldrich. CHOZN cells (SAFC) were transiently transfected, using an Amaxa nucleofector device (Lonza) according to the manufacturer's instructions. Standard, commercially available mammalian expression vectors (SAFC, Life Technologies) were used, which contained the full length human and cyno 5T4 antigen coding sequence (according to accession number NP 006661.1 and Q4R8Y9 respectively), preceded by a human CMV promoter. Transiently transfected CHOZN cells were cultured according the manufacturer's instructions, before being used in antibody binding studies. The 17 selected antibodies are characterised by the amino acid sequences according to the following table (Table 1).
(§2) MDA-MB-468 cells, PA-1 cells or CHOZN cells expressing human or cyno 5T4 antigen (100,000 cells/well in a 96-well plate) were washed three times with ice-cold FACS buffer (1×PBS (Lonza) containing 0.2% v/w BSA (Sigma-Aldrich, St. Louis, Mo.)) and 0.02% v/w NaN3 (Sigma-Aldrich), followed by the addition of a concentration range of each primary mAb (50 μl/well) diluted in ice-cold FACS buffer. After an incubation of 30 minutes at 4° C., cells were washed three times with ice-cold FACS buffer and 50 μl/well secondary mAb (AffiniPure F(ab′)2 fragment Goat-anti-human IgG-APC, 1:6,000 dilution, Jackson Immuno Research) was added. After 30 minutes at 4° C., cells were washed twice and resuspended in 150 μl FACS buffer. Fluorescence intensities were determined by flow cytometry (BD FACSVerse, Fanklin Lakes, N.J.) and indicated as the median fluorescence intensity (MFI). Curves were fitted by nonlinear regression using the sigmoidal dose-response equation with variable slope (four parameters) in GraphPad Prism (version 5.01/6.01 for Windows, GraphPad, San Diego, Calif.). EC₅₀ values were calculated as the concentration in μg/ml that gives a response half way between bottom and top of the curve, when using a 4 parameter logistic fit.
On the technique in general: A flow cytometer gives signals particle by particle.

The target of experiment [2] is T1, human 5T4 oncofoetal antigen. As to the kind of experiment: flow cytometry, PA-1 cells. The procedure: as §1, §2
Experiment [3] concerns the target T2, cynomolgus monkey 5T4 antigen (cynomolgus monkey, UniProt Q4R8Y9 35-420).
T2 construct: whole, on cells; also called cyno 5T4
T2 sequence (looked up): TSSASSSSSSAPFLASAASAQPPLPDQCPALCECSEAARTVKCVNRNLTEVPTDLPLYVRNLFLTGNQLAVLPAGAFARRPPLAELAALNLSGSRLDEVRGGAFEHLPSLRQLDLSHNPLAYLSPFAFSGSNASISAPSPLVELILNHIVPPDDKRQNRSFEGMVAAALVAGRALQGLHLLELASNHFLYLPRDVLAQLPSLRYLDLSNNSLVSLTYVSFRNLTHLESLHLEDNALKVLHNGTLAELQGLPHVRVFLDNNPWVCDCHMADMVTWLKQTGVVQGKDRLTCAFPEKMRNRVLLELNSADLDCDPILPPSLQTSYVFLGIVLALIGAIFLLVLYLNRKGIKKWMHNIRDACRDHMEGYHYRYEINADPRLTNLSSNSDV
As to the kind of experiment: flow cytometry, CHOZN cells expressing cyno 5T4. The procedure:
as §1, §2

The target of experiment [4] is T1, human 5T4 oncofoetal antigen. As to the kind of experiment: flow cytometry, CHOZN cells expressing hu 5T4. The protocol:
as §1, §2

For experiment [5], the target named is T2, cynomolgus monkey 5T4 antigen. As to the kind of experiment: flow cytometry, CHOZN cells expressing cyno 5T4. The protocol:
as §2
The source holds these as a separate data set.

B1: chimeric anti-5T4 monoclonal antibody 843 (antibody, human IgG1, V domains shown)
VH: QSLEESGGRLVTPGTPLTLTCTASGFSLNNAYMNWVRQAPGKGLEWIGIINTYGSTYFATWAKGRFTFSKTSTTVDLKITSPTTEDTATYFCARAYAPFSTYSHYYGMDLWGPGTLVTVSS
VL: DVVMTQTPSSVSAAVGGTVTIKCQASESIGSWLSWYQQKPGQPPKLLIYEASKLTSGVPSRFKGSGSGTEYTLTISDLESADAATYYCQYTDYGSNYLGTFGGGTEVVVK
What is called EC50 is the concentration that produces a half-maximal response. Regarding B1, the EC50 was determined as 0.08 mg/L in experiment [1], 0.04 mg/L in experiment [2], 0.21 mg/L in experiment [3] and 0.21 mg/L in experiment [4]. For the same molecule, in experiment [5], the “fold improvement of binding compared to H8 on cyno 5T4” value (“fold improvement of binding” below) stood at 32 fold.

B2: chimeric anti-5T4 monoclonal antibody 835 (antibody, human IgG1, V domains shown)
VH: QSVEESGGRLVTPGTPLTLTCTVSGIDLSSGAMGWVRQAPGKGLEWIGLISSSPITYYANWARGRFTISKTSTTVDLKITSPTTADTATYFCARGYDDYGEIWFNIWGPGTLVTVSL
VL: AIEMTQSPPSLSASVGETVRIRCLAGEDIYSSISWYQQKPGKPPTLLIYGASNLESGVPPRFSGSGSGTDYTLTIGGVQAEDAATYYCLGGWSYSSSLTFGAGTKVEIK
Regarding B2, the concentration giving a half-maximal response (EC50) was determined as 0.09 mg/L in experiment [1], 0.08 mg/L in experiment [2], 0.18 mg/L in experiment [3] and 0.17 mg/L in experiment [4]. Further, in experiment [5], the “fold improvement of binding” value is 32 fold.

B3: chimeric anti-5T4 monoclonal antibody 899 (antibody, human IgG1, V domains shown)
VH: QSVEESGGRLVTPGTPLTLTCTVSGFSLSSYTMSWVRQAPGKGLEYIGIISSSDGTWYANWVKGRFTISKTSTTVDLKMTSLTTEDTATYFCARDGTGNKYYTWDRLDLWGQGTLVTVSS
VL: NIVMTQTPSPVSGAVGGTVTINCQASQSIYNELSWYQQKPGQPPKLLIYYASTLASGVSSRFKGSGSGTQFTLTISGVESVDAATYYCQQGYSSSNVDNVFGGGTEVVVK
In the case of B3, the half-maximal effective concentration (EC50) in experiment [1] came to 0.09 mg/L; in experiment [2] it was 0.05 mg/L; in experiment [3], 0.18 mg/L; in experiment [4] it was 0.17 mg/L. For the same molecule, the “fold improvement of binding” value in experiment [5] is 32 fold.

B4: chimeric anti-5T4 monoclonal antibody 848 (antibody, human IgG1, V domains shown)
VH: QSVEESGGRLVTPGTPLTLTCTVSGFSLSSYTMSWVRQAPGKGLEWIGIISSIGSIWYASWAKGRFTISKTSTTVDLKMTSLTTEDTATYFCARDGTGSKYYTWDRLDLWGQGTLVTVSS
VL: NIVMTQTPSPVSGAVGGTVTINCQASQSIYNELSWYQQKPGQPPKLLIYYTSTLASGVSSRFKGSGSGTQFTLTISGVESVDAATYYCQQGYSSSDVDNVFGGGTEVVVK
On to B4, for which the 50% effective concentration (EC50) in experiment [1] was determined as 0.09 mg/L; in experiment [2], 0.05 mg/L; in experiment [3] it was 0.12 mg/L; in experiment [4], 0.17 mg/L. Besides, the “fold improvement of binding” value in experiment [5] is 32 fold.

B5: chimeric anti-5T4 monoclonal antibody 868 (antibody, human IgG1, V domains shown)
VH: QSVEESGGRLVTPGTPLTLTCTASGFSLSDYTMGWVRQAPGKGLEWIGIINGYGSTYYANWAKGRFAISKTSTTVDLKITSPATEDTATYFCARGDTGRTYDMHFNLWGQGTLVTVSS
VL: AYDMTQTPASVSAAVGGTVTIKCQASESIRSWLAWYQQKPGQPPKLLIYSASTLASGVSSRFKGSGSGTQFTLTIGDLESADAATYYCQQGYTSSNLDNAFGGGTEVLVK
With B5, the concentration for a half-maximal effect (EC50) was found to be 0.14 mg/L in experiment [1], 0.04 mg/L in experiment [2], 0.17 mg/L in experiment [3] and 0.22 mg/L in experiment [4]. In addition, the “fold improvement of binding” value in experiment [5] was found to be 32 fold.

B6: chimeric anti-5T4 monoclonal antibody 845 (antibody, human IgG1, V domains shown)
VH: QSLEESGGRLVTPGTPLTLTCTVSGIDLSSYTMNWVRQAPGKGLEWIGVITSHNTYYASWAKGRFTISKTSTTVDLKITSPTTEDTATYFCARSNYGSTIYYMGGMDPWGPGTLVTVSS
VL: DVVMTQTPASVSAAVGGTVTINCQASQSIGSYLAWYQHQPGQPPKLLIYSASTLESGVSSRFEGSRSGTEYTLTISDLDSADAATYYCQCTDYGASYLGAFGGGTEVVVK
For the molecule B6, the half-maximal effective concentration (EC50) in experiment [1] was determined as 0.11 mg/L; in experiment [2], 0.05 mg/L; in experiment [3] it was 0.17 mg/L; in experiment [4], 0.2 mg/L. In addition, the “fold improvement of binding” value in experiment [5] turned out to be 32 fold.

B7: chimeric anti-5T4 monoclonal antibody 833 (antibody, IgG1, V domains shown)
VH: QSLEESGGGLVTPGGSLTLTCTGSGIDLSHYVVGWVRQAPGKGLEWIGIIYGSGRTYYANWAKGRFTISKTSTTVDLRIARPTAEDTATYFCARDASVSVYYWGYFDLWGQGTLVTVSS
VL: AYDMTQTPVSVEVAVGGTVTIKCQASQSIGSELAWYQQKPGQPPKLLIYRASTLESGVPSRFSGSGSGTEFTLTISGVESADAATYYCQQGYTYSEIDNAFGGGTEVVVK
notes: also called clone 833
For the molecule B7, the EC50 in experiment [1] was found to be 0.04 mg/L; in experiment [2], 0.02 mg/L; in experiment [3], 0.08 mg/L; in experiment [4], 0.14 mg/L. In addition, the “fold improvement of binding” value in experiment [5] is 32 fold.

B8: chimeric anti-5T4 monoclonal antibody 789 (antibody, human IgG1, V domains shown)
VH: QSVEESGGRLVTPGTPLTLTCTASGFSLSSYWMSWVRQAPGKGLEWIGIIAGRGSTYYASWAKGRCTISKTSTTVDLKITSPTTEDTAAYFCARVSSIYYTFNLWGQGTLVTVSS
VL: AQVLTQTPSSVSAAVGGTVTINCQSSQSVYSNNELSWYQQKPGQPPKLLIYYASTLASGVPSRFKGSGSGTQFTLTISGVQSDDAATYYCQGSYYSGSGWYYAFGGGTEVVVK
notes: also called clone 789
With B8, the concentration for a half-maximal effect (EC50) in experiment [1] was 0.1 mg/L; in experiment [2], 0.03 mg/L; in experiment [3] it was 0.15 mg/L; in experiment [4], 0.27 mg/L. In experiment [5], the “fold improvement of binding” value came to 32 fold.

B9: chimeric anti-5T4 monoclonal antibody 825 (antibody, human IgG1, V domains shown)
VH: QSVEESGGRLVTPGTPLTLTCTVSGIDLSSYGMGWVRQAPGKGLEYIGIISRNSVTYYATWAKGRFTISKTSTTVDLKMTSPTTEDTATYFCARRATYSGALGYFDIWGPGTLVTVSF
VL: GYDMTQTPASVSAAVGGTVTINCQASENIYSTLAWYQQKPGQPPKVLIYDAFDLASGVPSRFKGSGSGTEYTLTISGVQSDDAATYYCQQGYSGTNVDNAFGGGTEVVVK
notes: also called clone 825
B9: the half-maximal effective concentration (EC50) is 0.07 mg/L in experiment [1], 0.03 mg/L in experiment [2], 0.14 mg/L in experiment [3] and 0.13 mg/L in experiment [4]. For the same molecule, the “fold improvement of binding” value in experiment [5] is 32 fold.

B10: chimeric anti-5T4 monoclonal antibody 841 (antibody, human IgG1, V domains shown)
VH: QSLEESGGRLVTPGTPLTLTCKASGFSLSTYWMSWVRQAPGKGLEWIGIMLSYGNTVYANWAKGRFTISKTSSTTVDLKITSPTTEDTATYFCARGLYGGYPNYGVYDLWGQGTLVTVSS
VL: DVVMTQTPASVEAAVGGTVTIKCQASQSISSYLSWYQQKPGQPPKLLIYAASNLASGVSSRFKGSRSGTEYTLTISDLESADAATYYCQCTDYGSNYVGAFGGGTEVVVK
In the case of B10, the EC50 in experiment [1] was found to be 0.1 mg/L; in experiment [2] it was 0.02 mg/L; in experiment [3], 0.14 mg/L; in experiment [4], 0.24 mg/L. Also, in experiment [5], the “fold improvement of binding” value is 32 fold.

B11: chimeric anti-5T4 monoclonal antibody 834 (antibody, human IgG1, V domains shown)
VH: QSVEESGGRLVTPGTPLTLTCTVSGFSLSTYSMSWVRQAPGKGLEWIGVISRGGSAYYASWAKGRFTISKTSTTVDLKVTSPTTEDTATYFCARGAISSGYYVYDGMDLWGPGTLVTVSS
VL: DIVMTQTPGSVEAAVGGTVTIKCQASESISSYLAWYQQKPGQPPKFLIYSASTLASGVPSRFKGSGSGTEFTLTISDLESADAATYYCQCTDYGSDYMGAFGGGTGVVVK
For the molecule B11, the EC50 in experiment [1] was 0.13 mg/L; in experiment [2], 0.05 mg/L; in experiment [3], 0.13 mg/L; in experiment [4] it was 0.19 mg/L. Also, in experiment [5], the “fold improvement of binding” value was 32 fold.
